Measured values: US20210032342A1 (Merck Sharp & Dohme, published 2021)
Changes are numbered by the printed parent chain. Names and notes keep the numbering of the source.

T1: human LAG-3 expressed by the CD4+ T-cell clone BC4-49 (human, UniProt P18627 23-525)
T1 construct: whole, on cells
T1 sequence (looked up): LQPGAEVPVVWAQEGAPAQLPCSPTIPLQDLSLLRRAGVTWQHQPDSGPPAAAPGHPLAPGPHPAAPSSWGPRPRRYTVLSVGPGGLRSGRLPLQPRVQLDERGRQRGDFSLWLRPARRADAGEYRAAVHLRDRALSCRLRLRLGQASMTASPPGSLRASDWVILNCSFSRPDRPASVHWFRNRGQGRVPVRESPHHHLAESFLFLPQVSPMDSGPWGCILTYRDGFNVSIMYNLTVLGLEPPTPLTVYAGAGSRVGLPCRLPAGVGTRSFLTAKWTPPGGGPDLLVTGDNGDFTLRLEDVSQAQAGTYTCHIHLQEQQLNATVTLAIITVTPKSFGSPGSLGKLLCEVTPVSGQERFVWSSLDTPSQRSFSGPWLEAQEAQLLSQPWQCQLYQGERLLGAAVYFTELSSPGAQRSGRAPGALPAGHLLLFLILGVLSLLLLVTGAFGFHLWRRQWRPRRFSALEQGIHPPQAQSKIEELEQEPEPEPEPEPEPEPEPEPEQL

B1: Anti-PD-1/LAG3 bispecific antibody 90ASU (bispecific antibody, human IgG1, kappa, L234A L235A)
heavy 1: not shown
light 1: DIVMTQTPLSLSVTPGQPASISCRASKSVSTSGFSYLHWYLQKPGQPPQLLIFLASNLESGVPDRFSGSGSGTDFTLKISRVEAEDVGVYYCQHSWELPLTFGQGTKLEIKRTVAAPSVFIFPPSDERLKSGTASVVCLLNNFYPREAKVQWKVDNALQSGNSQESVTEQDSKDSTYSLSSRLTLSKADYEKHKVYACEVTHQGLSSPVTKSFNRGEC
heavy 2: QMQLVQSGPEVKKPGTSVKVSCKASGYTFTDYNVDWVRQARGQRLEWIGDINPNDGGTIYAQKFQERVTITVDKSTSTAYMELSSLRSEDTAVYYCARNYRWFGAMDHWGQGTTVTVSSASTKGPSVFPLAPSSKSTSGGTAALGCLVKDYFPEPVTVSWNSGALTSGVHTFPAVLQSSGLYKLSSVVTVPSSSLGTQTYICNVNHKPSNTKVDKKVEPKSCDKTHTCPPCPAPEAAGGPSVFLFPPKPKDTLMISRTPEVTCVVVSVSHEDPEVKFNWYVDGVEVHNAKTKPREEQYNSTYRVVSVLTVLHQDWLNGKEYKCKVSNKALPAPIEKTISKAKGQPREPQVYVLPPSRDELTKNQVSLLCLVKGFYPSDIAVEWESNGQPENNYLTWPPVLDSDGSFFLYSKLTVDKSRWQQGNVFSCSVMHEALHNHYTQKSLSLSPG
light 2: DIVMTQTPLSLSVTPGQPASISCKASQSLDYEGDSDMNWYLQKPGQPPQLLIYGASNLESGVPDRFSGSGSGTDFTLKISRVEAEDVGVYYCQQSTEDPRTFGGGTKVEIKRTVAAPSVFIFPPSDEELKSGTATVVCLLNNFYPREAKVQWKVDNALQSGNSQESVTEQDSKDSTYSLSSYLELSKADYEKHKVYACEVTHQGLSSPVTKSFNRGEC
notes: also called Humanized x [PD-1_H]; [LAG3_H]; BsAb (hu08A S61N G56A arm / 22D2 arm) IgG1/Kappa
B2: Anti-PD-1/LAG-3 bispecific antibody (BsAb) 18ASS (bispecific antibody, human IgG1, kappa, L234A L235A)
heavy 1: not shown
light 1: B1 light 1 with A55S, S56K, N57Y, L58R, E59S, Q93S, H94Q, S95A, W96Y, E97H
heavy 2: B1 heavy 2
light 2: B1 light 2
B3: Humanized x [PD-1_H] Fab (08A/HuPD1A-11 S61N WT) IgG4/Kappa (00APE) (Fab, V domains shown)
VH: EVQLVQSGAEVKKPGASVKVSCKASGYTFTSYYLYWVRQAPGQGLEWIGGVNPSNGGTNFNEKFKSRVTLTVDTSISTAYMELSRLRSDDTAVYYCTRRDSNYDGGFDYWGQGTTVTVSS
VL: DIVMTQTPLSLSVTPGQPASISCRASKSVSTSGFSYLHWYLQKPGQPPQLLIFLASNLESGVPDRFSGSGSGTDFTLKISRVEAEDVGVYYCQHSWELPLTFGQGTKLEIKR
B4: Anti-PD-1/LAG3 bispecific antibody 33ARK (bispecific antibody, human IgG1, kappa, L234A L235A)
heavy 1: EVQLVQSGAEVKKPGASVKVSCKASGYTFTSYYLYWVREAPGQGLEWIGGVNPSNGGTNFNEKFKSRVTLTVDTSISTAYMELSRLRSDDTAVYYCTRRDSNYDGGFDYWGQGTTVTVSSASTKGPSVFPLAPSSKSTSGGTAALGCEVTDYFPEPVTVSWNSGALTSGVHTFPAVLESSGLYSLSSVVTVPSSSLGTQTYICNVNHKPSNTKVDKKVEPKSCDKTHTCPPCPAPEAAGGPSVFLFPPKPKDTLMISRTPEVTCVVVSVSHEDPEVKFNWYVDGVEVHNAKTKPREEQYNSTYRVVSVLTVLHQDWLNGKEYKCKVSNKALPAPIEKTISKAKGQPREPQVYVLPPSRDELTKNQVSLLCLVKGFYPSDIAVEWESNGQPENNYLTWPPVLDSDGSFFLYSKLTVDKSRWQQGNVFSCSVMHEALHNHYTQKSLSLSPG
light 1: B1 light 1 with Q42R, Q164K
heavy 2: not shown
light 2: B1 light 2 with Q42E, T135S, Q164E, Y182T
B5: Humanized x [PD-1_H] mAb (08A/HuPD1A-11 S61N CP-affinity matured Fab 100 (VH H3G9 (D100L N102H) G56A/VL L28D1) L234A L235A D265S) IgG1/Kappa (25AVE) (antibody, V domains shown)
VH: B3 VH with G56A, D100L, N102H
VL: B3 VL with A55S, S56K, N57Y, L58R, E59S, Q93S, H94Q, S95A, W96Y, E97H
notes: also called Humanized 08A IgG4 Fab 100 S61N G56A

Assays:
[1] = target: human PD-1 expressed on cells (Jurkat.hPD-1.IL2luc clone DT999A1; CD4+ T cell clone BC4-49) (human, UniProt Q15116 25-288); assay: cell-based or functional assay
human PD-1 expressed on cells (Jurkat.hPD-1.IL2luc clone DT999A1; CD4+ T cell clone BC4-49), sequence (Q15116 25-288): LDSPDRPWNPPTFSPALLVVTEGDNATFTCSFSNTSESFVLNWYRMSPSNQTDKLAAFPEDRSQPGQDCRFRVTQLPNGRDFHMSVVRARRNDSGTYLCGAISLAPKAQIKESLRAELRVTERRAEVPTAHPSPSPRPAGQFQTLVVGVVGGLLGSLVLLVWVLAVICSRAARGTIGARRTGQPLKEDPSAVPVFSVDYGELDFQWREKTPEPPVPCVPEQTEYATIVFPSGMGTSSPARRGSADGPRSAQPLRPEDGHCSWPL

[2] = target: T1, human LAG-3 expressed by the CD4+ …; assay: T-cell clone + JY.hPD-L1 co-culture (conclusion stated from IFNγ read-out)
Protocol: The pellets were resuspended into single cell suspension in Yssel's medium. […] Fifty microliters of T cell suspension at a density of 4×10⁵ cells/mL was added into wells containing titrated antibodies. The antibody/T cell mixture was pre-incubated for 1 hour in an incubator at 37° C. with 5% CO₂. Human PD-L1 transgene expressing JY cells (JY.hPD-L1) were used in co-cultures to provide allo-specific antigens. […] The pellet was resuspended with Yssel's medium, and filtered with 40 μm cell strainer before plating. Fifty μL/well of JY.hPD-L1 suspension at a concentration of 2×10⁵ cells/mL was dispensed into pre-incubated antibody-T cells mixture, with T cell to JY.hPD-L1 cell ratio at 2:1. All conditions were run in duplicates. After approximately 3-day culture, 100 μL of supernatant per well was harvested for human IFNγ quantification. Human IFNγ ELISA was performed to assess IFNγ level on pooled supernatant from duplicates by using hIFNγ QUANTIKINE kit (R&D Systems, SIF50). Assays were run following the standard protocol provided by manufacturer. EC50 values were calculated using the [sequence] prism software.

[3] = target: T2, polyhistidine-tagged human PD-1 (hPD1-His, 98AFK) (human, UniProt Q15116 25-167, limits assumed); assay: SPR solution affinity; reference Humanized 08A IgG4 S61N (98AIO)
T2 construct: also called human PD1-His; Human PD-1-His; not shown: polyhistidine tag
T2 sequence (Q15116 25-167 limits assumed): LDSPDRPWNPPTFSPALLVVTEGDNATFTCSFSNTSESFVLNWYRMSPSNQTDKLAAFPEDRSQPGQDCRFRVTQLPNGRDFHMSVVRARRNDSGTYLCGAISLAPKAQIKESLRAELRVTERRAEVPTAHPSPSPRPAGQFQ
Protocol: The titration series were incubated for 16-24 hours to reach equilibrium at room temperature. The unbound sites were measured using a BIAcore chip immobilized with antigen in a competition mode where SPR signal detected corresponded to unbound antibody.
Free, unbound antibodies concentrations were measured as proportional to RU after 120 seconds (for 500 pM mAb series) or 400 seconds (for 100 pM mAb series) of injection at 10 μL/min.
Data analyses were performed using KINEXA Pro Version 1.02 (Sapydyne) where RUs were normalized and plotted against concentrations.

| Binder | AVG EC50, IL-2 luciferase reporter (Jurkat.hPD-1.IL2luc + THP-1.PD-L1 assay) [1] | binding result [2] | KD (REF)/KD [3] |
| --- | --- | --- | --- |
| B1 | 2.54 nM | binds | – |
| B2 | 0.55 nM | – | – |
| B3 | 3.32 nM | – | – |
| B4 | 3.12 nM | – | – |
| B5 | – | – | 13 |
